This note sets out measurements from patent US20130171170A1 (published 2013).

The target in experiment [1] is T1, CD22 variant lacking domain 1 (Δ1), expressed on CHO cells (human, UniProt P20273 139-847).
T1 construct: Membrane protein on stably transformed CHO cells; Numbering of full length precursor CD22beta (Wilson et al. 1991); also called CD22 lacking domain 1
T1 chain: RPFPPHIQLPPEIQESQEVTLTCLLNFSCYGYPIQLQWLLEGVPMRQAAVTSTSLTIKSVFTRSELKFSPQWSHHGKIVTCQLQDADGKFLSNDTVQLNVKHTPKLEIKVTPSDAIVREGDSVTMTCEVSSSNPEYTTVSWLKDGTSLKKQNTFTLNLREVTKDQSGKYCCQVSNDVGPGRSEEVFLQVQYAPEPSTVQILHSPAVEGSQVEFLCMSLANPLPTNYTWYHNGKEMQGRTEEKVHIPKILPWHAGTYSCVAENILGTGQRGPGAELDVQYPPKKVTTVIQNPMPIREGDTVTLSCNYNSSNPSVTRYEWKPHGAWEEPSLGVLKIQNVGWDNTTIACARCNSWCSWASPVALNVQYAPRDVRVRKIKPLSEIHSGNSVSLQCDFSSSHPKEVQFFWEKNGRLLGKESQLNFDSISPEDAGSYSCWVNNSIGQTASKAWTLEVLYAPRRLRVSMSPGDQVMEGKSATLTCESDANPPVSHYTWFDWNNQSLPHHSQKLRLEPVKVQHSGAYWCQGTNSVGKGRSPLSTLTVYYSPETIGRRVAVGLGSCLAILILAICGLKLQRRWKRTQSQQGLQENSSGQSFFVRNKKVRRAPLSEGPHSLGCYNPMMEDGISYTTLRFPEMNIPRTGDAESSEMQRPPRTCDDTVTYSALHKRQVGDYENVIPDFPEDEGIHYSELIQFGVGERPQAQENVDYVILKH
Nature of the experiment: flow cytometry on CHO cells expressing the CD22 deletion variant; goat anti-mouse IgG Alexa 488. On the procedure: CD22 sequences lacking various of the seven immunoglobulin-like domains of the major CD22 isoform (CD22beta) were cloned and transformed into cells for stable expression. For example, CD22 variants lacking domain 1 (Δ1), domain 2 (Δ2), or domains 3 and 4 (Δ3,4) were cloned, transformed into CHO cells, and expressed on the cells. Control cells expressed CD22beta. Deletions were performed using Stratagene QuikChange XL™ reagent kit. Deletion of domain 1 was performed by deletion of amino acids 22-138; deletion of domain 2 was performed by deletion of amino acids 139-242; and deleted domains 3 and 4 were available as the minor isoform CD22alpha (deletion of amino acids 241-417). All amino acid numbers refer to the numbering of full length precursor CD22beta by Wilson, G. L. et al. (see FIG. 1 in Wilson, G. L. et al., J. Exp. Med. 173:137-146 (1991)). FIG. 14 is a diagram of the deleted domains. Binding was determined by flow cytometry using an isotype control. […] Binding of 5E8.1.8 was detected using biotinylated goat anti-mouse IgG plus streptavidin PE.

Experiment [2] deals with T2, full length human CD22 (CD22beta) expressed on the surface of CHO cells (human, UniProt P20273 22-847).
T2 construct: CHO cells stably expressing full length human CD22; also called CD22beta (control cells)
Nature of the experiment: cell-based competitive binding of 125I-labelled against unlabelled antibody on CHO cells, 4 h at 4 C, Scatchard analysis. On the procedure: (§1) Briefly, CHO cells stably expressing full length human CD22 (SEQ ID NO:27) or cynomolgus monkey (cyno) CD22 (SEQ ID NO:31). […] A cell-based, competitive binding assay was performed using serially diluted, unlabeled anti-CD22 antibody. Antibodies were allowed to bind to the cells for 4 hours at 4° C. Binding affinity, KD, of the antibodies was determined in accordance with standard Scatchard analysis performed utilizing a non-linear curve fitting program (see, for example, Munson et al., Anal Biochem, 107: 220-239, 1980).

Experiment [3] deals with T3, cynomolgus monkey (cyno) CD22 expressed on the surface of CHO cells (cynomolgus monkey).
T3 construct: residues 1-19 (signal) should be removed
T3 chain: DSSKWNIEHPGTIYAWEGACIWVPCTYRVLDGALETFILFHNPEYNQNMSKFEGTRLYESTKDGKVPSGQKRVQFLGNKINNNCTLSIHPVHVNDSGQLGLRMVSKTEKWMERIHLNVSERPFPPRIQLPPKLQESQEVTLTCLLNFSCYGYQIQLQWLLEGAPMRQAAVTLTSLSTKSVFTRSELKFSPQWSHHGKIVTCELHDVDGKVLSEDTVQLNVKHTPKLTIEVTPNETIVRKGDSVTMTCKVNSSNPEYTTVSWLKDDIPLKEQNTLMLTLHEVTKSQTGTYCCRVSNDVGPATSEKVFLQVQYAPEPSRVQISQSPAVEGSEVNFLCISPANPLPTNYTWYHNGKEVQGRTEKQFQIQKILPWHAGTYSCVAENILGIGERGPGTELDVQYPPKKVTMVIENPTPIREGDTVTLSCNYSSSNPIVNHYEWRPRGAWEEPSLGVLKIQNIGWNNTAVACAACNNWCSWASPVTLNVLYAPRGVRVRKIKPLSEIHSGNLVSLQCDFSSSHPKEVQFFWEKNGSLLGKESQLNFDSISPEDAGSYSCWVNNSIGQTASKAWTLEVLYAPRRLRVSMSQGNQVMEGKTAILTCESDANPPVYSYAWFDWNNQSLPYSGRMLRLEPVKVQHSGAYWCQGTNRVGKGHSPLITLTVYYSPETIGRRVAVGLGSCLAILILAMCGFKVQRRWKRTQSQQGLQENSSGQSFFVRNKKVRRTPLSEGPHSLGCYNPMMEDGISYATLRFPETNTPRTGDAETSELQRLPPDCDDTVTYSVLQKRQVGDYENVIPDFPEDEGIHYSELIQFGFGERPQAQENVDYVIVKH
The experiment is described as above. As for the experimental part: as §1

B1: murine anti-human CD22 10F4.4.1 monoclonal antibody (antibody, V domains shown)
VH: QVQLQQSGPELVKPGASVKISCKASGYEFSRSWMNWVKQRPGQGREWIGRIYPGDGDTNYSGKFKGKATLTADKSSSTAYMQLSSLTSVDSAVYFCARDGSSWDWYFDVWGAGTTVTVSS
VL: DILMTQTPLSLPVSLGDQASISCRSSQSIVHSNGNTFLEWYLQKPGQSPKLLIYKVSNRFSGVPDRFSGSGSGTDFTLKISRVEAEDLGVYYCFQGSQFPYTFGGGTKVEIK
notes: Murine hybridoma antibody (ATCC PTA-7621); also called mu 10F4; Mu 10F4.4.1
For the molecule B1, the binding result in experiment [1] is recorded as “no binding”. Further, the results for the Kd in experiment [2] and in experiment [3] were 2.4 nM and 2.3 nM, respectively.
